The values below come from article PMC12464994, “Quantification of Membrane Protein Conformational Free Energy from Mutations and a Single Atom” (Journal of the American Chemical Society, 2025).

The chains are these.
B2: 6FW-EmrE^W63 (EmrE W31F/W45F/W76F labeled with 6-fluoro-tryptophan at Trp63) (natural protein, E. coli)
chain: MNPYIYLGGAILAEVIGTTLMKFSEGFTRLFPSVGTIICYCASFFLLAQTLAYIPTGIAYAIWSGVGIVLISLLSFGFFGQRLDLPAIIGMMLICAGVLIINLLSRSTPH
modifications: 6-fluoro-tryptophan at Trp63
notes: EmrE, small multidrug resistance (SMR) transporter of E. coli; only Trp63 kept of the four tryptophans; also called 6FW-labeled EmrE^W63; source: E. coli BL21(DE3), M9 medium with glyphosate and fluoro-indole, purified (amylose column, TEV cleavage, SEC in DDM)

Assay in all cases: 19F NMR spectroscopy (one-dimensional spectra and 19F/19F ZZ-exchange/NOESY); proteins alone or mixed in DDM (1 h, 37 °C, 10 mM DTT) at stated molar ratios, reconstituted in 14:0-PC/6:0-PC isotropic bicelles (q = 0.33); pH 5.6; 37 °C; 1-2 mM protein; 150 mM Na2HPO4, 20 mM NaCl
Data set [1] has as its target T1, EmrE^W63 (EmrE W31F/W45F/W76F), natural abundance (E. coli, UniProt P23895 1-110, W31F | W45F | W76F).
T1 construct: EmrE, small multidrug resistance (SMR) transporter of E. coli; only Trp63 kept of the four tryptophans; NMR-silent partner in the mixed (heterodimer) samples; reconstituted in 14:0-PC/6:0-PC bicelles; also called unlabeled EmrE^W63; natural abundance EmrE^W63; source: E. coli BL21(DE3), LB medium, purified (amylose column, TEV cleavage, SEC in DDM)
T1 sequence: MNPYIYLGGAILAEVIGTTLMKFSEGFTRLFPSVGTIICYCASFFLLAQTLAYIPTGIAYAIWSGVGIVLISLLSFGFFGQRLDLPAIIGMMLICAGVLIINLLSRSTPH
To be noted: both partners purified.

Data set [2] has as its target T2, EmrE^(W63, L51I), natural abundance (E. coli, UniProt P23895 1-110, W31F | W45F | W76F | L51I).
T2 construct: EmrE, small multidrug resistance (SMR) transporter of E. coli; EmrE^W63 background with L51I; also called natural abundance EmrE^(W63, L51I); source: E. coli BL21(DE3), purified (amylose column, TEV cleavage, SEC in DDM)
T2 sequence: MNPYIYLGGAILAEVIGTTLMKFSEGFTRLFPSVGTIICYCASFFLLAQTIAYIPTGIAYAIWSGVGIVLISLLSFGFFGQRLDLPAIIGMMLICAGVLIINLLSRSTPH
To be noted: both partners purified.

Data set [3] deals with T3, EmrE^(W63, E14Q), natural abundance (E. coli, UniProt P23895 1-110, W31F | W45F | W76F | E14Q).
T3 construct: EmrE, small multidrug resistance (SMR) transporter of E. coli; EmrE^W63 background with E14Q; also called natural abundance EmrE^(W63, E14Q); source: E. coli BL21(DE3), purified (amylose column, TEV cleavage, SEC in DDM)
T3 sequence: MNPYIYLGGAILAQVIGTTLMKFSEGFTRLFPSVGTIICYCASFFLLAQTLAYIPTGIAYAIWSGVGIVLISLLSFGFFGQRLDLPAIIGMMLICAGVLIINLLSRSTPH
The following applies: both partners purified.

Data set [4] concerns the molecule itself.
Data set [5] addresses B2. To be noted: both partners purified.

B1: 5FW-EmrE^W63 (EmrE W31F/W45F/W76F labeled with 5-fluoro-tryptophan at Trp63) (natural protein, E. coli)
chain: MNPYIYLGGAILAEVIGTTLMKFSEGFTRLFPSVGTIICYCASFFLLAQTLAYIPTGIAYAIWSGVGIVLISLLSFGFFGQRLDLPAIIGMMLICAGVLIINLLSRSTPH
modifications: 5-fluoro-tryptophan at Trp63
notes: EmrE, small multidrug resistance (SMR) transporter of E. coli; only Trp63 kept of the four tryptophans; also called 5FW-labeled EmrE^W63; source: E. coli BL21(DE3), M9 medium with glyphosate and fluoro-indole, purified (amylose column, TEV cleavage, SEC in DDM)
B1: the binding result in data set [1], in data set [2], in data set [3] and in data set [4] was “binds” each time.

For B2, the binding result in data set [1] and in data set [4] was “binds” in each case.

B3: 5FW-EmrE^(W63, L51I) (natural protein, E. coli)
chain: MNPYIYLGGAILAEVIGTTLMKFSEGFTRLFPSVGTIICYCASFFLLAQTIAYIPTGIAYAIWSGVGIVLISLLSFGFFGQRLDLPAIIGMMLICAGVLIINLLSRSTPH
modifications: 5-fluoro-tryptophan at Trp63
notes: EmrE, small multidrug resistance (SMR) transporter of E. coli; EmrE^W63 background with L51I; source: E. coli BL21(DE3), M9 medium with glyphosate and fluoro-indole, purified (amylose column, TEV cleavage, SEC in DDM)
As for B3, the binding result in data set [1], in data set [5] and in data set [4] was “binds” in each case.

B4: 5FW-EmrE^(W63, E14Q) (natural protein, E. coli)
chain: MNPYIYLGGAILAQVIGTTLMKFSEGFTRLFPSVGTIICYCASFFLLAQTLAYIPTGIAYAIWSGVGIVLISLLSFGFFGQRLDLPAIIGMMLICAGVLIINLLSRSTPH
modifications: 5-fluoro-tryptophan at Trp63
notes: EmrE, small multidrug resistance (SMR) transporter of E. coli; EmrE^W63 background with E14Q; also called Gln14 mutant monomer; source: E. coli BL21(DE3), M9 medium with glyphosate and fluoro-indole, purified (amylose column, TEV cleavage, SEC in DDM)
Turning to B4, the binding result in data set [1] and in data set [4] was “binds” in each case.
